The results in this text go back to patent publication US20260218270A1.

In series [1] the target is fusion protein of SEQ ID NO: 16 (Nanoluc luciferase at the C-terminus, VWF A2 domain aa1574-1668, Flag-tag, C-terminal His-tag). Description: cell-based or functional assay.
The target in series [2] is T1, fusion protein of SEQ ID NO: 15 (Nanoluc luciferase at the N-terminus, VWF A2 domain aa1574-1668, Flag-tag, C-terminal His-tag).
T1 chain: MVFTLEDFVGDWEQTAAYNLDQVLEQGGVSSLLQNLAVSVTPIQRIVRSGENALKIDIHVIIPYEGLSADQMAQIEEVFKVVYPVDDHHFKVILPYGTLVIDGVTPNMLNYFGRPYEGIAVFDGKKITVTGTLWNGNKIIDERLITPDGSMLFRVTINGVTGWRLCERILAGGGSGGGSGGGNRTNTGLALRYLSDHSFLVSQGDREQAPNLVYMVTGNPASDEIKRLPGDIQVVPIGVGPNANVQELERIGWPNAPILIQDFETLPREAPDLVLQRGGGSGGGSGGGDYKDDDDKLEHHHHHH

For series [3], the target named is T2, fusion protein of SEQ ID NO: 16 (Nanoluc luciferase at the C-terminus, VWF A2 domain aa1574-1668, Flag-tag, C-terminal His-tag).
T2 chain: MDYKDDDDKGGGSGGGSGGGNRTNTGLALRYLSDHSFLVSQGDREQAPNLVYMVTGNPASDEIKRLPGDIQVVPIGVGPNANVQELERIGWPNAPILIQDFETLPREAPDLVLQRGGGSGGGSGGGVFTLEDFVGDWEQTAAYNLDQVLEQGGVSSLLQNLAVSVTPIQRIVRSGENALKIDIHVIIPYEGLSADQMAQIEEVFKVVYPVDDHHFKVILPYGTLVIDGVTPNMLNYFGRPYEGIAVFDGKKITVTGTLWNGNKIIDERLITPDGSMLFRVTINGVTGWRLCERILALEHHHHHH

For series [4], the target named is T3, N-NLuc-VWFA2-C fusion protein (SEQ ID NO: 17).
T3 chain: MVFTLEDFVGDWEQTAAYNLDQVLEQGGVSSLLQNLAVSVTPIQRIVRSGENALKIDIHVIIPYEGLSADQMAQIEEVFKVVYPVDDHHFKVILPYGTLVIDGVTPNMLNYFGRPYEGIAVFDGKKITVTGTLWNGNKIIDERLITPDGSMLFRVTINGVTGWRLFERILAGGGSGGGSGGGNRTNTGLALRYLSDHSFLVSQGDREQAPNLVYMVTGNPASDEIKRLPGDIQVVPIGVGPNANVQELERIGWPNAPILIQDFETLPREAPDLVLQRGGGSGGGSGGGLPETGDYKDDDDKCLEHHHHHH

B1: ADAMTS13 (protein)
chain: AAGGILHLELLVAVGPDVFQAHQEDTERYVLTNLNIGAELLRDPSLGAQFRVHLVKMVILTEPEGAPNITANLTSSLLSVCGWSQTINPEDDTDPGHADLVLYITRFDLELPDGNRQVRGVTQLGGACSPTWSCLITEDTGFDLGVTIAHEIGHSFGLEHDGAPGSGCGPSGHVMASDGAAPRAGLAWSPCSRRQLLSLLSAGRARCVWDPPRPQPGSAGHPPDAQPGLYYSANEQCRVAFGPKAVACTFAREHLDMCQALSCHTDPLDQSSCSRLLVPLLDGTECGVEKWCSKGRCRSLVELTPIAAVHGRWSSWGPRSPCSRSCGGGVVTRRRQCNNPRPAFGGRACVGADLQAEMCNTQACEKTQLEFMSQQCARTDGQPLRSSPGGASFYHWGAAVPHSQGDALCRHMCRAIGESFIMKRGDSFLDGTRCMPSGPREDGTLSLCVSGSCRTFGCDGRMDSQQVWDRCQVCGGDNSTCSPRKGSFTAGRAREYVTFLTVTPNLTSVYIANHRPLFTHLAVRIGGRYVVAGKMSISPNTTYPSLLEDGRVEYRVALTEDRLPRLEEIRIWGPLQEDADIQVYRRYGEEYGNLTRPDITFTYFQPKPRQAWVWAAVRGPCSVSCGAGLRWVNYSCLDQARKELVETVQCQGSQQPPAWPEACVLEPCPPYWAVGDFGPCSASCGGGLRERPVRCVEAQGSLLKTLPPARCRAGAQQPAVALETCNPQPCPARWEVSEPSSCTSAGGAGLALENETCVPGADGLEAPVTEGPGSVDEKLPAPEPCVGMSCPPGWGHLDATSAGEKAPSPWGSIRTGAQAAHVWTPAAGSCSVSCGRGLMELRFLCMDSALRVPVQEELCGLASKPGSRREVCQAVPCPARWQYKLAACSVSCGRGVVRRILYCARAHGEDDGEEILLDTQCQGLPRPEPQEACSLEPCPPRWKVMSLGPCSASCGLGTARRSVACVQLDQGQDVEVDEAACAALVRPEASVPCLIADCTYRWHVGTWMECSVSCGDGIQRRRDTCLGPQAQAPVPADFCQHLPKPVTVRGCWAGPCVGQGTPSLVPHEEAAAPGRTTATPAGASLEWSQARGLLFSPAPQPRRLLPGPQENSVQSSACGRQHLEPTGTIDMRGPGQADCAVAIGRPLGEVVTLRVLESSLNCSAGDMLLLWGRLTWRKMCRKLLDMTFSSKTNTLVVRQRCGRPGGGVLLRYGSQLAPETFYRECDMQLFGPWGEIVSPSLSPATSNAGGCRLFINVAPHARIAIHALATNMGAGTEGANASYILIRDTHSLRTTAFHGQQVLYWESESSQAEMEFSEGFLKAQASLRGQYWTLQSWVPEMQDPQSWKGKEGT
In series [1], B1 registered a luminescence (RLU) left on the Ni-NTA binding plate, A13 from lithium-heparin plasma, FIG. 8C of 400000 RLU. Further, the “luminescence (RLU) of fusion protein left on anti-VWF-A2 coated plate after incubation with 0-20% NPP” value in series [2] is “shows a decreasing signal when the concentration NPP increases, suggesting that ADAMTS13 cleaves the fusion protein”. Besides, in series [3], the “amount of fusion protein cleaved off and transferred to the new plate” value is given as about 120 ng VWFA2-Nanoluc; the “luminescence (RLU) against NPP concentration, FIG. 1” value is on record as “This fusion protein is also cleaved by ADAMTS13 but here is not as much influence on light emission”; the “luminescence (RLU) of fusion protein left on anti-VWF-A2 coated plate after incubation with 0-20% NPP” value is given as “did not demonstrate an effect of an increasing ADAMTS13 concentration”; the “luminescence (RLU) transferred from anti-FLAG plate after A13 at 0-1 IU/mL” value is listed as “a signal increase from ~1.5 towards ~1.7 M RLU for C-Flag”. Besides, the “share of the initially offered quantity that was cleaved off and transferred” value in series [3] is given as ~12% of the initially offered quantity to the wells. The “SDS-PAGE (4-15% gradient, Coomassie Blue), FIG. 10” value in series [4] is listed as “shows the expected fragments of the fusion-protein (SEQ ID NO: 17) after cleavage by adding ADAMTS13”.
